Laboratory results reported in paper PMC7442622, “A functionally neutral single chain antibody to measure beta‐1 integrin uptake and recycling” (Traffic (Copenhagen, Denmark), 2020).

Molecular target: T1, β1 integrin (Homo sapiens, UniProt P05556)
T1 construct: β1 integrin (integrin beta-1), endogenous on the surface of H1975 and hTERT-RPE1 cells; On cells β1 integrin stands in αβ heterodimers; also called beta‐1 integrin; endogenous β1 integrin; source: endogenous, on H1975 cells; endogenous, on hTERT‐RPE1 cells
Test: ELISA; cell-based ELISA binding isotherm on H1975 cells seeded on gelatin- and fibronectin-coated 96-well plates; antibody dilutions in PBS4+ (1 mM MgCl2, 1 mM CaCl2, 5 mM glucose, 1% BSA), 30 minutes at 4°C; KD as the concentration at half-maximal binding; n = 4
Details: one partner purified

T1 sequence (P05556 21-798): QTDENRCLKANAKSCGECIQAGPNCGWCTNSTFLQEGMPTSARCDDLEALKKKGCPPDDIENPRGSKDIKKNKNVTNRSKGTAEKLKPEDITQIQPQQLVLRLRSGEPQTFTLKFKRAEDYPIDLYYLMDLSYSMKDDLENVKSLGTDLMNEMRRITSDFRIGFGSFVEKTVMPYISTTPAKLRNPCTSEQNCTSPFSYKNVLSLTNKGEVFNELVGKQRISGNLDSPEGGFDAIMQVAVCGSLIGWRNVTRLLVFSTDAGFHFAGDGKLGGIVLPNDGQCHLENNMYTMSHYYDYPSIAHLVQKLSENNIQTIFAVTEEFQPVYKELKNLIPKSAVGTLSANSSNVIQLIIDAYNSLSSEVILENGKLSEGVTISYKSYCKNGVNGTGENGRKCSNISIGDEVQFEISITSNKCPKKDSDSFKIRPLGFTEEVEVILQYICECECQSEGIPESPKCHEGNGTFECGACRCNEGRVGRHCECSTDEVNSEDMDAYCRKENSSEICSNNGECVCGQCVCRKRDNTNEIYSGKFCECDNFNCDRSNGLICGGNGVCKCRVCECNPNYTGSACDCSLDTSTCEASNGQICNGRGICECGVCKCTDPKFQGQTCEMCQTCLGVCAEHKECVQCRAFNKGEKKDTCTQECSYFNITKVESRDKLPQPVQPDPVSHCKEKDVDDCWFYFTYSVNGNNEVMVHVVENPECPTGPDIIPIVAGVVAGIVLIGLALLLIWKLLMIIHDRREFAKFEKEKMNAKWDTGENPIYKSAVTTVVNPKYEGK

Row | Binder | Kd [nM]
1 | MBP‐scFv^K20 (scFv, V domains shown, VH of mouse mAb K20; flexible linker, 3x repeat of GGGGS; VL of mouse mAb K20; 71 kDa fusion; a TEV site lies between MBP and the scFv; monovalent; also called MBP‐fused scFv^K20; anti‐β1 integrin scFv^K20; source: High Five insect cells, baculovirus, secreted; purified (IMAC, SEC peak 2); also as culture media containing secreted scFv^K20; not shown: His6, N-terminal, kept; MBP, N-terminal, …) VH: QVQLQESGTELVRPGASVKLSCKASGYTFTDYYISWVKQRPGQGLEWIARIYPGSGNTFYNEKFKGKATLTAETSSNTAYMQLSSLTSEDSAVYFCAIYYGSGDYWGQGTTVTVSS VL: DIQLTQSPSSLSASLGGKVTITCKASQDINKYIAWYQHEPGKGPRLLIRYTSKLESGIPSRFSGSGSGRDYSFSISNLEPEDIATYYCLQYYNLWTFGGGTKLEIK | 6.54 ± 1.34
2 | mouse monoclonal anti‐β1 integrin antibody mAb K20 (antibody, V domains shown, VH of mAb K20; constant region of the heavy chain of a mouse IgG; VL of mAb K20; constant region of the light chain of a mouse antibody; Bivalent IgG; also called mAb K20 IgG; parent mAb K20; source: bought: Beckman Coulter; copies: 2 + 2) VH: QVQLQESGTELVRPGASVKLSCKASGYTFTDYYISWVKQRPGQGLEWIARIYPGSGNTFYNEKFKGKATLTAETSSNTAYMQLSSLTSEDSAVYFCAIYYGSGDYWGQGTTVTVSS VL: DIQLTQSPSSLSASLGGKVTITCKASQDINKYIAWYQHEPGKGPRLLIRYTSKLESGIPSRFSGSGSGRDYSFSISNLEPEDIATYYCLQYYNLWTFGGGTKLEIK | 1.2 ± 0.14
